Experimental data taken from the Immune Epitope Database (IEDB).

Legend:
HLA-B*07:02 = experiment: IEDB peptide-MHC binding, purified MHC/competitive/radioactivity; filed as Kd, often an IC50 or EC50 that approximates it; ≥ and ≤ were set here for values at or beyond the usual limits of such assays
HLA-A*01:01 [1] = experiment: as above
HLA-A*29:02 = experiment: as above
HLA-A*23:01 = experiment: as above
HLA-A*26:01 [2] = experiment: as above
HLA-A*24:02 = experiment: as above
HLA-A*30:02 = experiment: as above
HLA-A*31:01 = experiment: as above; settings: source organism: Triticum aestivum
HLA-A*33:01 = experiment: as above; settings: source organism: Triticum aestivum
HLA-A*11:01 = experiment: as above; settings: source organism: Triticum aestivum
HLA-A*68:01 = experiment: as above; settings: source organism: Triticum aestivum
HLA-A*03:01 = experiment: as above; settings: source organism: Triticum aestivum
HLA-A*01:01 [3] = experiment: IEDB peptide-MHC binding, purified MHC/direct/fluorescence; filed as Kd, often an IC50 or EC50 that approximates it; ≥ and ≤ were set here for values at or beyond the usual limits of such assays; settings: source organism: Mycobacterium avium 104
HLA-A*26:01 [4] = experiment: as above
HLA-B*40:01 = experiment: IEDB peptide-MHC binding, purified MHC/competitive/radioactivity; filed as Kd, often an IC50 or EC50 that approximates it; ≥ and ≤ were set here for values at or beyond the usual limits of such assays
HLA-B*51:01 = experiment: as above
HLA-A*02:03 = experiment: as above
HLA-B*44:03 = experiment: as above
HLA-A*02:02 = experiment: as above; settings: source organism: SARS coronavirus Tor2
HLA-A*02:06 = experiment: as above; settings: source organism: SARS coronavirus Tor2
[5] = source organism: Dengue virus 1 Brazil/97-11/1997
[6] = source organism: SARS coronavirus Tor2
[7] = source organism: Triticum aestivum
[8] = source organism: Dengue virus 2 Jamaica/1409/1983
[9] = source organism: Dengue virus 3 Martinique/1243/1999
[10] = source organism: Dengue virus 4 Philippines/H241/1956
[11] = source organism: Mammarenavirus brazilense
[12] = source organism: Mammarenavirus guanaritoense
[13] = source organism: Dengue virus 1 Singapore/S275/1990

Row | Sequence | Kd (HLA-A*01:01 [1]; [6]) [nM] | Kd (HLA-A*29:02; [6]) [nM] | Kd (HLA-A*23:01; [6]) [nM] | Kd (HLA-A*26:01 [2]; [6]) [nM] | Kd (HLA-A*24:02; [6]) [nM] | Kd (HLA-A*30:02; [6]) [nM] | other results
1 | KPGTSGSPIV |  |  |  |  |  |  | Kd (HLA-B*07:02; [5]): 1080 nM
2 | CTLSEQLDY | 8.53 | 1.05 | ≥ 77800 | 842 | ≥ 77600 | 27.6 | 
3 | AMCNVYIPPY |  |  |  |  |  |  | Kd (HLA-A*01:01 [1]; [7]): 83.5 nM; Kd (HLA-A*31:01): 224 nM; Kd (HLA-A*29:02; [7]): 13 nM; Kd (HLA-A*33:01): 2600 nM; Kd (HLA-A*23:01; [7]): 11500 nM; Kd (HLA-A*26:01 [2]; [7]): 854 nM; Kd (HLA-A*24:02; [7]): ≥ 28300 nM; Kd (HLA-A*11:01): 136 nM; Kd (HLA-A*68:01): 921 nM; Kd (HLA-A*03:01): 152 nM; Kd (HLA-A*30:02; [7]): 874 nM
4 | SSQGSEYDY | 576 | 294 | ≥ 77800 | ≥ 102000 | ≥ 77600 | 68.9 | 
5 | LTVTLVWLY |  |  |  |  |  |  | Kd (HLA-A*01:01 [3]): ≥ 20000 nM; Kd (HLA-A*26:01 [4]; source organism: Mycobacterium avium 104): 2.7 nM
6 | AFEKMVSLL | ≥ 78100 | ≥ 27400 | 8390 | ≥ 74400 | 11500 | ≥ 81100 | 
7 | VEDYGFGVF |  |  |  |  |  |  | Kd (HLA-B*40:01; [8]): 315 nM
8 | RPRWLDARVY |  |  |  |  |  |  | Kd (HLA-B*07:02; source organism: Dengue virus 4 Dominica/814669/1981): 13.7 nM
9 | TPSMAMRCVG |  |  |  |  |  |  | Kd (HLA-B*07:02; [5]): 405 nM
10 | VEKVETWAL |  |  |  |  |  |  | Kd (HLA-B*40:01; [9]): 14.9 nM
11 | FLFFMQGKGI |  |  |  |  |  |  | Kd (HLA-B*51:01; [10]): ≥ 45200 nM; Kd (HLA-A*02:03; [10]): 3.77 nM
12 | GYLKPTTFM | ≥ 78100 | 538 | 2540 | ≥ 77900 | 12200 | 6690 | 
13 | NGDVVAIDY | 1030 | 825 | ≥ 77800 | ≥ 81500 | ≥ 77600 | 1800 | 
14 | EEVQVLALE |  |  |  |  |  |  | Kd (HLA-B*44:03; [8]): 10500 nM
15 | LEKHGAERL |  |  |  |  |  |  | Kd (HLA-B*40:01; [5]): 23.7 nM
16 | IPKNFAGPV |  |  |  |  |  |  | Kd (HLA-B*51:01; [8]): 3100 nM; Kd (HLA-B*07:02; [8]): 6.79 nM
17 | AWPLIVTAL | ≥ 23000 | ≥ 75000 | ≥ 49000 | 17700 | ≥ 77600 | ≥ 37900 | 
18 | ICSSVLKRY |  |  |  |  |  |  | Kd (HLA-A*01:01 [1]; [11]): 470 nM; Kd (HLA-A*29:02; [11]): ≥ 50600 nM; Kd (HLA-A*23:01; [11]): 14600 nM; Kd (HLA-A*26:01 [2]; [11]): ≥ 77900 nM; Kd (HLA-A*24:02; [11]): 15400 nM; Kd (HLA-A*30:02; [11]): 302 nM
19 | KELEGILLP |  |  |  |  |  |  | Kd (HLA-B*44:03; source organism: Homo sapiens): 356 nM

Row | Sequence | Kd (HLA-A*01:01 [1]; [6]) [nM] | Kd (HLA-A*29:02; [6]) [nM] | Kd (HLA-A*23:01; [6]) [nM] | Kd (HLA-A*26:01 [2]; [6]) [nM] | Kd (HLA-A*24:02; [6]) [nM] | Kd (HLA-A*30:02; [6]) [nM] | other results
20 | LALLAAFKV |  |  |  |  |  |  | Kd (HLA-B*51:01; [8]): 812 nM
21 | CLERWMLVA |  |  |  |  |  |  | Kd (HLA-A*01:01 [1]; [12]): 153 nM; Kd (HLA-A*29:02; [12]): ≥ 78900 nM; Kd (HLA-A*23:01; [12]): ≥ 77700 nM; Kd (HLA-A*26:01 [2]; [12]): ≥ 77900 nM; Kd (HLA-A*24:02; [12]): ≥ 77500 nM; Kd (HLA-A*30:02; [12]): 14900 nM
22 | AFLIGANYL | ≥ 73000 | ≥ 26600 | ≥ 55300 | ≥ 77900 | ≥ 45900 | ≥ 78900 | 
23 | FEEVMRGKFG |  |  |  |  |  |  | Kd (HLA-B*40:01; [9]): 1340 nM
24 | QFLYLYALI | 2320 | 64.1 | 0.117 | 10100 | 26.1 | ≥ 26700 | 
25 | DPRRCMKPV |  |  |  |  |  |  | Kd (HLA-B*07:02; [8]): 139 nM
26 | WPLNEGIMAI |  |  |  |  |  |  | Kd (HLA-B*51:01; [5]): 186 nM
27 | EIARIVEQM |  |  |  |  |  |  | Kd (HLA-A*26:01 [4]; source organism: Mycobacterium tuberculosis variant bovis): 194 nM
28 | ISMMGFKMNY | 422 | 33.4 | ≥ 31000 | 5450 | ≥ 70300 | 4.25 | 
29 | GEVDSFSLGL |  |  |  |  |  |  | Kd (HLA-B*40:01; [13]): 2.13 nM; Kd (HLA-B*44:03; [13]): 158 nM
30 | ETLPAMCNVY |  |  |  |  |  |  | Kd (HLA-A*01:01 [1]; [7]): 415 nM; Kd (HLA-A*29:02; [7]): 4150 nM; Kd (HLA-A*23:01; [7]): ≥ 38800 nM; Kd (HLA-A*26:01 [2]; [7]): 205 nM; Kd (HLA-A*24:02; [7]): ≥ 70300 nM; Kd (HLA-A*30:02; [7]): 3660 nM
31 | NFKHLREFVF | ≥ 70400 | 16.4 | 115 | ≥ 69700 | 260 | ≥ 78900 | 
32 | LIDLQELGKY | 116 | 2820 | ≥ 70000 | 1020 | ≥ 70300 | 38.9 | 
33 | QSDTVFDHY |  |  |  |  |  |  | Kd (HLA-A*01:01 [1]; source organism: Variola virus): 9.5 nM; Kd (HLA-A*29:02; source organism: Variola virus): ≥ 38000 nM; Kd (HLA-A*23:01; source organism: Variola virus): ≥ 77700 nM; Kd (HLA-A*26:01 [2]; source organism: Variola virus): ≥ 77900 nM; Kd (HLA-A*24:02; source organism: Variola virus): ≥ 77500 nM; Kd (HLA-A*30:02; source organism: Variola virus): 11900 nM
34 | VWTLMNVITL | 2720 | 72.1 | 62.2 | 1500 | 188 | 19400 | 
35 | YQCGHYTHI | ≥ 20100 | ≥ 25000 | 312 | 13300 | 116 | 10900 | Kd (HLA-A*02:02): 72.1 nM; Kd (HLA-A*02:06): 9.23 nM; Kd (HLA-A*02:03; [6]): 14.9 nM
36 | RPTFAAGLL |  |  |  |  |  |  | Kd (HLA-B*07:02; [8]): 1.09 nM
37 | PYPQPQPQY |  |  |  |  |  |  | Kd (HLA-A*01:01 [1]; [7]): ≥ 78100 nM; Kd (HLA-A*29:02; [7]): 230 nM; Kd (HLA-A*23:01; [7]): ≥ 49400 nM; Kd (HLA-A*26:01 [2]; [7]): ≥ 77900 nM; Kd (HLA-A*24:02; [7]): ≥ 237000 nM; Kd (HLA-A*30:02; [7]): 639 nM
38 | CYGVSATKL | ≥ 78100 | 12200 | 12000 | ≥ 77900 | ≥ 34300 | ≥ 81100 | 
